Reference: patent publication US20100215653A1, “METHODS OF TREATING NEOPLASTIC, AUTOIMMUNE AND INFLAMMATORY DISEASES” (Seattle Genetics, Inc., priority 2006, published 2010)
“Also recorded” adds a separate entry of the source. Like-named read-outs stand apart in the source and are kept apart here.

Columns and labels:
[1] = system: primary human macrophages; test: Cytokine, chemokine and growth factor production by primary human macrophages; type: cell-based
Procedure: Primary human macrophages were generated from long-term cultures of freshly isolated human peripheral blood mononuclear cells (PBMCs; AllCells, Emeryville, Calif. or LifeBlood, Memphis, Tenn.). PBMCs were cultured in tissue culture flasks in RPMI 1640 medium containing glutamine (Invitrogen, Grand Island, N.Y.), 10% heat-inactivated FBS, and antibiotics for 3 to 4 hours. Non-adherent cells were removed by washing with PBS and the adherent cells were cultured in OptiMem-I medium (Invitrogen) containing 1% heat-inactivated FBS for 1 to 2 hours. The cells were washed with PBS and cultured for 10 to 14 days in X-VIVO-15 medium (Cambrex Bio Science, Walkersville, Md.) containing 500 U/ml GM-CSF (Peprotech, Rocky Hill, N.J.).
Tissue culture media was harvested 18 h later for cytokine analyses by ELISA or Searchlight (Pierce Endogen, Rockville, Ill.).

[2] = system: primary human macrophages; test: Cell viability (CelltiterGlo) of primary human macrophages; type: cell-based; details: 24 to 72 hours of exposure to increasing concentrations (FIG. 8)
Procedure: (§1) Macrophages were harvested, counted, and cultured in 96-well plates at 35,000 cells per well. G-CSF-mobilized CD14^+ monocytes (Cambrex) were cultured in 96-well plates at 100,000 cells per well (adherent cells) in sterile polypropylene dishes (non-adherent cells).

[3] = system: primary human CD14+ monocytes; test: Cell viability (CelltiterGlo) of primary human CD14+ monocytes; type: cell-based; details: 48 hours of exposure to increasing concentrations (FIG. 13)
Procedure: as §1

[4] = system: KG-1 AML cell line; test: Cytokine production by KG-1 AML cell line after TNF-alpha; type: cell-based, human; details: 2.5 μg/ml pre-treatment, then 1 ng/ml TNF-alpha, 18 h
Procedure: Media was harvested 18 h later for cytokine analyses.

[5] = system: AML tumor cell lines; test: IL-8 / MCP-1 production by AML tumor cell lines after TNF-α (ELISA); type: cell-based, human; details: 10 μg/ml SGN-33 before 1 ng/ml TNF-α; 18 h; p<0.05, p<0.01 (FIG. 27C)
Procedure: Target AML tumor cells (KG-1 HEL9217, and TF1α) were labeled with Na^51CrO4 and mixed with enriched CD16^+ effector (NK) cells, prepared using PBMCs from normal donors. The effector to target cell ratio was 10:1. […] Macrophages were labeled with CD11b−FITC or CD14-FITC antibody. Flow cytometric analyses of dual labeled (PKH67+CD11b+ or PKH67+CD14+) cells was used to determine specific uptake (phagocytosis). […] Media were collected 18 h later and analyzed by ELISA for IL-8 or MCP-1.

[6] = system: relapsed and refractory acute myeloid leukemia (AML); details: low dose, infrequent administration; cited from earlier work
[7] = biological target: T1, CD33 (Homo sapiens, UniProt P20138); test: Apparent Kd by saturation binding using flow cytometry; parameters: endogenous in cells; host or cells: HL60, KG-1, HEL9217, TF1-α
Procedure: As a preliminary step, the AML cell lines HL60, KG-1, HEL9217 and TF1-α were assessed for multi-drug resistance (MDR) status and CD33 copy number. MDR status was determined by flow cytometry assessment of Rhodamine (Rh123) efflux at 37° C. […] CD33 copy number was determined by qFACs (DAKO QifiKit) and apparent Kd values by saturation binding measurements using flow cytometry.

[8] = biological target: T1, CD33; test: Recruitment of SHP-1 / SHP-2 / Syk to CD33 (CD33 immunoprecipitation, Western blot); type: cell-based; parameters: endogenous in cells; host or cells: HL-60, U937; primary human CD14+ monocytes and PBMC-derived macrophages
Procedure: To determine whether the humanized M195 antibody also recruits SHP phosphatases, HL-60 cells were treated with soluble or cross-linked anti-CD33 antibodies. Cell extracts were prepared and CD33 was immunoprecipitated with an anti-CD33 antibody (MY9 clone). Western blotting was performed with an anti-SHP-1 antibody (sc-287; Santa Cruz Biotechnology, Inc., Santa Cruz, Calif.).
To prepare deglycosylated SGN-33, the antibody was treated with PN-glycosidase F (New England BioLabs, Ipswich, Mass.). Deglycosylation was confirmed by CE-SDS. […] Cell lysates were prepared and CD33 immunoprecipitated using an anti-CD33 rabbit polyclonal antibody (Santa Cruz Biotechnology, Santa Cruz, Calif.) prior to SDS PAGE gel electrophoresis. Western blot analyses of these samples were performed using the 4G10 phosphotyrosine antibody (Upstate Biotechnology, Temucula, Calif.), anti-CD33 antibody (NovoCastra, Norwell, Mass.), and anti-SHP-1 antibody (Calbiochem, San Diego, Calif.). Control lysate for SHP-1 was prepared from a B cell lymphoma cell line.

T1 sequence (P20138 18-364): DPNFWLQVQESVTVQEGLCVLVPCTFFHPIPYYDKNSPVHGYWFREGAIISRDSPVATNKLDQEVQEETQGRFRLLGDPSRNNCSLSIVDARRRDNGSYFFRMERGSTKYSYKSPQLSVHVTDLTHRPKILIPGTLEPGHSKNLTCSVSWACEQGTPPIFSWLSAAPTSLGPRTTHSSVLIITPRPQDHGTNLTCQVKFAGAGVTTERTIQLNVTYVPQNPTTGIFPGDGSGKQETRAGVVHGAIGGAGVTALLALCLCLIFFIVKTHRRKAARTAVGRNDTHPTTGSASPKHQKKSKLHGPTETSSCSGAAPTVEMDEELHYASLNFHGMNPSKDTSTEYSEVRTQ

**Q.** With “SGN-33: anti-CD33 antibody, a humanized version of mouse monoclonal antibody M195” as the substance, how does the “production of IL-6, TNF-α, RANTES and MCP-1” value ([1]; macrophages pre-incubated 3 hours with SGN-33, response to IFN-γ or conditioned media from RPMI-8226 and Karpus-620 cells, 24 h) read?
**A.** reduced production of IL-6, TNF-α, RANTES, and MCP-1

**Q.** What about the “levels of TNF-α” value ([1]; primary human macrophages, various doses 1 hr before IFN-γ, 18 h, p<0.05 (FIG. 20)) of the same substance?
**A.** significantly reduced levels of TNF-α in a dose-dependent manner

**Q.** What about the “cell viability of macrophages” value [2] of the same substance?
**A.** not due to an adverse effect; also recorded: does not affect the viability

**Q.** What about the “cell viability of monocytes” value [3] of the same substance?
**A.** not due to an adverse effect; also recorded: does not affect the viability

**Q.** What about the “production of IL-8, IP-10, MIP1β, RANTES and MCP-1” value [4] of the same substance?
**A.** reduced the production of IL-8, IP-10, MIP1β, RANTES, and MCP-1

**Q.** What about the “production of cytokines (IL-8 or MCP-1)” value [5] of the same substance?
**A.** reduced cytokine production; also recorded: significantly reduced the production of cytokines

**Q.** And the “blast cells in patients” value [6]?
**A.** induced significant reductions in blast cells

**Q.** What about the Kd ([7]; read-out: Kd (pM) for SGN-33, HEL9217 cells (MDR positive)) of the same substance?
**A.** 144 ± 12 pM

**Q.** And the Kd ([7]; read-out: Kd (pM) for SGN-33, HL60 cells (MDR negative))?
**A.** 123 ± 16 pM

**Q.** What about the Kd ([7]; read-out: Kd (pM) for SGN-33, KG-1 cells (MDR negative)) of the same substance?
**A.** 70 ± 20 pM

**Q.** And the Kd ([7]; read-out: Kd (pM) for SGN-33, TF1-α cells (MDR positive))?
**A.** 99 ± 22 pM

**Q.** And the “recruitment of SHP-1 to the CD33 complex” value ([8]; HL-60 and monocytes, 30 minutes (FIG. 16))?
**A.** resulted in recruitment of SHP-1 to the CD33 complex

**Q.** And the “recruitment of SHP-2 or Syk” value ([8]; HL-60 cells, data not shown)?
**A.** did not recruit SHP-2 or Syk
